# According to patent US8673306B2, “Compositions and methods of use for antibodies of dickkopf-1” (Novartis AG, priority 2006, dated 2014):
# Substitutions are numbered along the chain they refer to. Marks after values point to notes of the source that are not given here.
# T1: DKK1/LRP6 binding on cell surface (Homo sapiens, UniProt O94907)
# T1 construct: made in house; LRP6 and MESD transiently transfected into HEK293T
# T1 sequence (O94907 32-266): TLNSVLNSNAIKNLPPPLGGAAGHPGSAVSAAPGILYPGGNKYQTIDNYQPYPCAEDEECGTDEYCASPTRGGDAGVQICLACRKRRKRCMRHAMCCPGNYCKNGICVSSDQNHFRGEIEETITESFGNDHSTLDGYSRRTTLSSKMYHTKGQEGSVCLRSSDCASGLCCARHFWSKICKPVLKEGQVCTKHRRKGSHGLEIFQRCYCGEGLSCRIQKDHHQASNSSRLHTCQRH
# T2: human recombinant, biotinylated DKK1 (Homo sapiens, UniProt O94907)
# T2 sequence (O94907 32-266): T1 sequence (O94907 32-266)
# B1: MOR04910: affinity-optimized Fab from MOR04461; VH SEQ ID NO: 11, VL SEQ ID NO: 30; also used as MOR4910 IgG (antibody, listed as Homo sapiens, V domains shown)
# VH: QVQLVESGGGLVQPGGSLRLSCAASGFTFSSYWMSWVRQAPGKGLEWVSGISYSGSNTHYADSVKGRFTISRDNSKNTLYLQMNSLRAEDTAVYYCARMGIDLDYWGQGTLVTVSS
# VL: DIALTQPASVSGSPGQSITISCTGTSSDVGGFNYVSWYQQHPGKAPKLMIHDGSNRPSGVSNRFSGSKSGNTASLTISGLQAEDEADYYCQSWDVSPITAVFGGGTKLTVLGQ
# B2: MOR04954: affinity-optimized Fab from MOR04470; VH SEQ ID NO: 18, VL SEQ ID NO: 37 (antibody, listed as Homo sapiens, V domains shown)
# VH: QVQLVESGGGLVQPGGSLRLSCAASGFTFSSYWMSWVRQAPGKGLEWVSVIEHKDKGGTTYYAASVKGRFTISRDNSKNTLYLQMNSLRAEDTAVYYCARHGIDFDHWGQGTLVTVSS
# VL: DIALTQPASVSGSPGQSITISCTGTSSDLGGYNYVSWYQQHPGKAPKLMIYDVNNRPSGVSNRFSGSKSGNTASLTISGLQAEDEADYYCQSYASGNTKVVFGGGTKLTVLGQ
# B3: MOR04907: affinity-optimized Fab from MOR04456; VH SEQ ID NO: 8, VL SEQ ID NO: 27 (antibody, listed as Homo sapiens, V domains shown)
# VH: QVQLVESGGGLVQPGGSLRLSCAASGFTFNNYGMTWVRQAPGKGLEWVSGISGSGSYTYYADSVKGRFTISRDNSKNTLYLQMNSLRAEDTAVYYCARTIYMDYWGQGTLVTVSS
# VL: DIVLTQSPATLSLSPGERATLSCRASQNLFSPYLAWYQQKPGQAPRLLIYGASNRATGVPARFSGSGSGTDFTLTISSLEPEDFAVYYCQQYLSLPTTFGQGTKVEIKRT
# B4: MOR04914: affinity-optimized Fab from MOR04470; VH SEQ ID NO: 14, VL SEQ ID NO: 33 (antibody, listed as Homo sapiens, V domains shown)
# VH: B1 VH with G50V, Y53S, S54D, G55S, N57S, H59Y, M99H, L103F, Y105H
# VL: B2 VL with A94T, S95Y, G96T, N97P, T98I, K99S, V100P
# B5: MOR04921: affinity-optimized Fab from MOR04461; VH SEQ ID NO: 12, VL SEQ ID NO: 31 (antibody, listed as Homo sapiens, V domains shown)
# VH: B1 VH
# VL: B1 VL with S92T, D94A, V95T, I98L, T99S, A100S
# B6: MOR04456: parental HuCAL GOLD anti-DKK1 Fab; VH SEQ ID NO: 4, VL SEQ ID NO: 23 (antibody, listed as Homo sapiens, V domains shown)
# VH: B3 VH
# VL: B3 VL with V86T, L93G, S94D, L95E, T97I
# B7: MOR04455: parental HuCAL GOLD anti-DKK1 Fab; VH SEQ ID NO: 3, VL SEQ ID NO: 22 (antibody, listed as Homo sapiens, V domains shown)
# VH: QVQLVESGGGLVQPGGSLRLSCAASGFTFSSYGMSWVRQAPGKGLEWVSGISGSGSYTYYADSVKGRFTISRDNSKNTLYLQMNSLRAEDTAVYYCARHYMDHWGQGTLVTVSS
# VL: DIQMTQSPSSLSASVGDRVTITCRASQDISNYLHWYQQKPGKAPKLLIYGASNLQSGVPSRFSGSGSGTDFTLTISSLQPEDFAVYYCQQYDSIPMTFGQGTKVEIKRT
# B8: MOR04470: parental HuCAL GOLD anti-DKK1 Fab; VH SEQ ID NO: 6, VL SEQ ID NO: 25 (antibody, listed as Homo sapiens, V domains shown)
# VH: B1 VH with G50V, Y53S, S54D, G55S, N57S, H59Y, M99H, L103F, Y105H
# VL: B2 VL
# B9: MOR04461: parental HuCAL GOLD anti-DKK1 Fab; VH SEQ ID NO: 5, VL SEQ ID NO: 24 (antibody, listed as Homo sapiens, V domains shown)
# VH: B1 VH
# VL: DIALTQPASVSGSPGQSITISCTGTSSDVGGFNYVSWYQQHPGKAPKLMIHDGSNRPSGVSNRFSGSKSGNTASLTISGLQAEDEADYYCSTWDMTVDFVFGGGTKLTVLGQ
# B10: MOR04516: parental HuCAL GOLD anti-DKK1 Fab; VH SEQ ID NO: 7, VL SEQ ID NO: 26 (antibody, listed as Homo sapiens, V domains shown)
# VH: QVQLVQSGAEVKKPGESLKISCKGSGYSFTNYYIGWVRQMPGKGLEWMGIIYPTDSYTNYSPSFQGQVTISADKSISTAYLQWSSLKASDTAMYYCARGIPFRMRGFDYWGQGTLVTVSS
# VL: DIVLTQPPSVSGAPGQRVTISCSGSSSNIGSSFVNWYQQLPGTAPKLLIGNNSNRPSGVPDRFSGSKSGTSASLAITGLQSEDEADYYCASFDMGSPNVVFGGGTKLTVLGQ
# B11: MOR04454: parental HuCAL GOLD anti-DKK1 Fab; VH SEQ ID NO: 2, VL SEQ ID NO: 21 (antibody, listed as Homo sapiens, V domains shown)
# VH: QVQLVESGGGLVQPGGSLRLSCAASGFTFSNYGLHWVRQAPGKGLEWVSSISYYGSSTYYADSVKGRFTISRDNSKNTLYLQMNSLRAEDTAVYYCARDGSHMDKPPGYVFAFWGQGTLVTVSS
# VL: DIQMTQSPSSLSASVGDRVTITCRASQGIKNYLNWYQQKPGKAPKLLIGAASSLQSGVPSRFSGSGSGTDFTLTISSLQPEDFATYYCLQYYGMPPTFGQGTKVEIKRT
# Target: T1, DKK1/LRP6 binding on cell surface
# Assay: DKK1-GFP binding to LRP6 on HEK293T cell surface, fluorescence microscopy
# Assay type: cell-based
# Details: HEK293T transfected with LRP6 and MESD
# Description: However, upon co-transfection of LRP6 with a surface trafficking chaperone protein, MESD, GFP-tagged DKK1 can be detected on the cell surface, illustrating the specific nature of the DKK1/LRP6 interaction.
# The ability of MOR04910 to inhibit DKK1/LRP6 binding on cell surface is measured by fluorescence microscopy. HEK293T cells are either mock transfected and transiently transfected with plasmids encoding LRP6 and MESD. Cells are incubated with DKK1-GFP conditioned medium together with anti-lysozyme FAb or anti-DKK1 FAb MOR04910 for 1 hour at 37° C., and examined by fluorescence microscopy. GFP fluorescence reflects DKK1-GFP binding to overexpressed LRP6 on the plasma membrane.
row,inhibition of DKK1/LRP6 binding on cell surface,Molecule
1,specifically blocks this interaction,B1

# Target: T2, human recombinant, biotinylated DKK1
# Assay: ELISA binding of matured Fabs in presence of 50% human serum
# Details: Fab 1 μg/ml
# Description: Binding specificity of the matured Fabs in the presence of 50% human serum (HS) is determined. Serial dilutions of human recombinant, biotinylated DKK1 in TBS are Coated onto Neutravidin microtiter plates for 2 h at room temperature, from 8 ng DKK1 per well to a concentration of 125 ng DKK1 per well. After coating of the antigen, wells are blocked with TBS/0.05% Tween (TBS-T) supplemented with 1% BSA for 1 h at room temperature. Purified Fabs described above are diluted either in TBS/4% BSA or TBS/50% HS at a final concentration of 1 μg/ml, added to the coated and blocked wells and the plates are incubated for 1 h at room temperature. For detection, an anti-FLAG alkaline phosphatase (AP)-conjugated antibody (1:5000 dilution in TBST) and the fluorogenic substrate AttoPhos (Roche) are used. After each incubation, the wells of the microtiter plates are washed with TBST five times, except after the final incubation step with the labeled secondary antibody when wells are washed three times.
# The fluorescence is measured in a TECAN Spectrafluor plate reader. Table 8 summarizes the binding activity of the optimized anti-DKK1 Fabs in presence of 50% human serum compared to binding activity in 4% BSA, which ranges from 83% to 100%. The median value is found to be 93%, thus the anti-DKK1 Fabs are found to fully bind to target in the presence of human serum.
row,Binding activity w/50% Human serum vs 4% BSA (%),Molecule
1,>83* %,B2
2,>83* %,B3
3,83* %,B4
4,93* %,B5

# System: not listed separately
# Assay: Fab stability and aggregation (size exclusion chromatography)
# Assay type: physicochemical
# Details: Fab after purification
row,Molecule,Size exclusion chromatography
1,B6,# (monomeric portion >90%)
2,B7,# (monomeric portion >90%)
3,B8,# (monomeric portion >90%)
4,B9,# (monomeric portion >90%)
5,B10,# (monomeric portion >90%)
6,B11,# (monomeric portion >90%)
